In series [1] the target is T1, Lsm2-8 complex (Saccharomyces cerevisiae, UniProt P38203;P57743;P40070;P40089;Q06406;P53905;P47093 …).
T1 sequence 1: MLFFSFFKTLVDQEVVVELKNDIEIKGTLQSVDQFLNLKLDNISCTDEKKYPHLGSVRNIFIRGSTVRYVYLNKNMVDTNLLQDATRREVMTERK
T1 sequence 2: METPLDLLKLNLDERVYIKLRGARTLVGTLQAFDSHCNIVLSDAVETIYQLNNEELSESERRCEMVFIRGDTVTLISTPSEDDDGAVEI
T1 sequence 3: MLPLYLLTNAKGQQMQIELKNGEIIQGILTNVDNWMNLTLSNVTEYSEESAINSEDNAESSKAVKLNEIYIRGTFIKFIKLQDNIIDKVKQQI
T1 sequence 4: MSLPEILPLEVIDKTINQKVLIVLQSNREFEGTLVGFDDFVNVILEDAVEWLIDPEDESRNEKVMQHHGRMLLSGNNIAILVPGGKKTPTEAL
T1 sequence 5: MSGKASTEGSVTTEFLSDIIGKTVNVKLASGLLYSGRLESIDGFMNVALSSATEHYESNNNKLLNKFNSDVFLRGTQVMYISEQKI
T1 sequence 6: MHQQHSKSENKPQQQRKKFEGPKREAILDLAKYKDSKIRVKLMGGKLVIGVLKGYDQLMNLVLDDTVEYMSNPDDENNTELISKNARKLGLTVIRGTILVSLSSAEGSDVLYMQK
T1 sequence 7: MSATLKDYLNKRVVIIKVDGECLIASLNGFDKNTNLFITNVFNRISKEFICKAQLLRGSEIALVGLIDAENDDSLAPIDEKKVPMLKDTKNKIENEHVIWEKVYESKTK
Put plainly: fluorescence polarization; Hill 1.0; EMSA: 5 nM Cy3-U6, 100 mM KCl, 20% sucrose, 20 mM bis-tris/10 mM HCl, 1 mM EDTA, 1 mM TCEP, 0.01% Triton X-100, 0.1 mg/mL tRNA, 0.01 mg/mL heparin, 0.1 mg/mL BSA, room temp 20 min (gel 4 C); FP: 0.25-1 nM FAM-RNA, 100 mM NaCl, 20 mM bis-tris/10 mM HCl, 1 mM TCEP, 5% glycerol, 1 mM EDTA, yeast tRNA, BSA. As to conditions: protein: recombinant; tags: His on Lsm8 and GST on Lsm6, removed by TEV; copies: 1;1;1;1;1;1;1; label: 5' 6-FAM. On the technique in general: Polarisation of emitted light reports the rotation of a fluorescent probe.

Series [2] deals with T2, Lhp1 (yeast La protein) (Saccharomyces cerevisiae, UniProt P33399 1-275).
T2 sequence: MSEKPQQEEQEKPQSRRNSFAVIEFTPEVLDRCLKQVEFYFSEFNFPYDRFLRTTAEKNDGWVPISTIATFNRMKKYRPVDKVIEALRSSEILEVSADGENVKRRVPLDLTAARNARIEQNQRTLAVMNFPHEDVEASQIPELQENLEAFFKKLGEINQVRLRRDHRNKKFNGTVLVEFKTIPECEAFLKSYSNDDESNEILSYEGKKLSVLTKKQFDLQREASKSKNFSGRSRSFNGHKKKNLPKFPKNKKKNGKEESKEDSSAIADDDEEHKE
The series is described as follows: fluorescence polarization; Hill 1.11; EMSA: 5 nM Cy3-U6, 100 mM KCl, 20% sucrose, 20 mM bis-tris/10 mM HCl, 1 mM EDTA, 1 mM TCEP, 0.01% Triton X-100, 0.1 mg/mL tRNA, 0.01 mg/mL heparin, 0.1 mg/mL BSA, room temp 20 min (gel 4 C); FP: 0.25-1 nM FAM-RNA, 100 mM NaCl, 20 mM bis-tris/10 mM HCl, 1 mM TCEP, 5% glycerol, 1 mM EDTA, yeast tRNA, BSA. The following applies: protein: recombinant; tags: N-terminal His8-TEV; label: 5' 6-FAM.

Series [3] addresses T1, Lsm2-8 complex. The series is described as follows: fluorescence polarization; Hill 1.6; EMSA: 5 nM Cy3-U6, 100 mM KCl, 20% sucrose, 20 mM bis-tris/10 mM HCl, 1 mM EDTA, 1 mM TCEP, 0.01% Triton X-100, 0.1 mg/mL tRNA, 0.01 mg/mL heparin, 0.1 mg/mL BSA, room temp 20 min (gel 4 C); FP: 0.25-1 nM FAM-RNA, 100 mM NaCl, 20 mM bis-tris/10 mM HCl, 1 mM TCEP, 5% glycerol, 1 mM EDTA, yeast tRNA, BSA. The following applies: protein: recombinant; tags: His on Lsm8 and GST on Lsm6, removed by TEV; copies: 1;1;1;1;1;1;1; label: 5' 6-FAM.

The target in series [4] is T2, Lhp1 (yeast La protein). The series is described as follows: fluorescence polarization; Hill 1.27; EMSA: 5 nM Cy3-U6, 100 mM KCl, 20% sucrose, 20 mM bis-tris/10 mM HCl, 1 mM EDTA, 1 mM TCEP, 0.01% Triton X-100, 0.1 mg/mL tRNA, 0.01 mg/mL heparin, 0.1 mg/mL BSA, room temp 20 min (gel 4 C); FP: 0.25-1 nM FAM-RNA, 100 mM NaCl, 20 mM bis-tris/10 mM HCl, 1 mM TCEP, 5% glycerol, 1 mM EDTA, yeast tRNA, BSA. As to conditions: protein: recombinant; tags: N-terminal His8-TEV; label: 5' 6-FAM.

In series [5] the target is T1, Lsm2-8 complex. Put plainly: fluorescence polarization; Hill 1.3; EMSA: 5 nM Cy3-U6, 100 mM KCl, 20% sucrose, 20 mM bis-tris/10 mM HCl, 1 mM EDTA, 1 mM TCEP, 0.01% Triton X-100, 0.1 mg/mL tRNA, 0.01 mg/mL heparin, 0.1 mg/mL BSA, room temp 20 min (gel 4 C); FP: 0.25-1 nM FAM-RNA, 100 mM NaCl, 20 mM bis-tris/10 mM HCl, 1 mM TCEP, 5% glycerol, 1 mM EDTA, yeast tRNA, BSA. The following applies: protein: recombinant; tags: His on Lsm8 and GST on Lsm6, removed by TEV; copies: 1;1;1;1;1;1;1; label: 5' 6-FAM.

B1: U6 95-112+1U 3'OH (ssRNA)
RNA: AGAGAUUUAUUUCGUUUUU
modifications: 2',3'-cis-diol end
Take B1: the Kd (as a rule, the equilibrium constant for the complex coming apart) in the series with Lsm2-8 complex [1] stood at 17 ± 1 nM; in the series with Lhp1 (yeast La protein) [2] it was 29 ± 1 nM.

B2: U6 95-112 3'OH (ssRNA)
RNA: AGAGAUUUAUUUCGUUUU
modifications: 2',3'-cis-diol end
For B2, the values for the Kd with Lsm2-8 complex [3] and with Lhp1 (yeast La protein) [4] were 85 ± 1 nM and 43 ± 1 nM, respectively.

B3: U6 95-112 3'P (ssRNA)
RNA: AGAGAUUUAUUUCGUUUU
modifications: 3' phosphate
Take B3: the equilibrium dissociation constant (Kd) with Lsm2-8 complex [5] worked out at 10 ± 1 nM.

B4: U6 95-112+1U 3'P (ssRNA)
RNA: AGAGAUUUAUUUCGUUUUU
modifications: 3' phosphate
For B4, in the series with Lsm2-8 complex [1], the Kd came to 3 ± 1 nM.
